{
  "source": "paper doi:10.1101/2025.07.07.663466",
  "biological_target": "recombinant human mitochondrial Hsp60 (human), P10809",
  "test": "native gel or EMSA + SEC",
  "conditions": "remark: other sources report otherwise",
  "data": [
    {"binder": "recombinant human mitochondrial Hsp60, P10809 27-573 (natural protein) AKDVKFGADARALMLQGVDLLADAVAVTMGPKGRTVIIEQSWGSPKVTKDGVTVAKSIDLKDKYKNIGAKLVQDVANNTNEEAGDGTTTATVLARSIAKEGFEKISKGANPVEIRRGVMLAVDAVIAELKKQSKPVTTPEEIAQVATISANGDKEIGNIISDAMKKVGRKGVITVKDGKTLNDELEIIEGMKFDRGYISPYFINTSKGQKCEFQDAYVLLSEKKISSIQSIVPALEIANAHRKPLVIIAEDVDGEALSTLVLNRLKVGLQVVAVKAPGFGDNRKNQLKDMAIATGGAVFGEEGLTLNLEDVQPHDLGKVGEVIVTKDDAMLLKGKGDKAQIEKRIQEIIEQLDVTTSEYEKEKLNERLAKLSDGVAVLKVGGTSDVEVNEKKDRVTDALNATRAAVEEGIVLGGGCALLRCIPALDSLTPANEDQKIGIEIIKRTLKIPAMTIAKNAGVEGSLIVEKIMQSSSEVGYDAMAGDFVNMVEKGIIDPTKVVRTALLDAAGVASLLTTAEVVVTEIPKEEKDPGMGAMGGMGGGMGGGMF", "values": [
      {"measurement": "stoichiometry N", "result": 7}
    ]}
  ]
}
